Test results as given in publication PMC4828840, “Structural insight into the cooperation of chloroplast chaperonin subunits” (BMC Biology, 2016).

Experiments:
[1] = biological target: CPN60β1 homo-oligomer (Chlamydomonas reinhardtii); assay: crystal structure; apo CPN60β1 homo-oligomer, 3.8 Å, space group P21, molecular replacement with apo GroEL
[2] = biological target: CPN60β1 homo-oligomer (Chlamydomonas reinhardtii)
GroEL = biological target: T1, GroEL (E. coli, UniProt P0A6F5 1-548); assay: SEC; gel filtration, Superdex 200; 2 μM chaperonin and 10 μM GroES; buffer with 50 μM AMP-PNP; fractions on SDS-PAGE, Coomassie; details: both partners purified
T1 construct: GroEL, group I chaperonin of E. coli; Purification of proteins is in Additional file 1; copies: 14

Molecule: CPN60β1 homo-oligomer (natural protein)
- stoichiometry N [1]: 14 subunits

Molecule: mitochondrial co-chaperonin Hsp10 from mouse (from UniProt Q64433 1-102) (natural protein)
- inhibition of the ATPase activity of CPN60β1 (0.2 μM chaperonin, 0.4 μM co-chaperonin, 25 °C) [2]: 50%

B1: GroES (natural protein, E. coli, UniProt P0A6F9 1-97, looked up)
chain: MNIRPLHDRVIVKRKEVETKSAGGIVLTGSAAAKSTRGEVLAVGNGRILENGEVKPLDVKVGDIVIFNDGYGVKSEKIDNEEVLIMSESDILAIVEA
notes: GroES, co-chaperonin of E. coli; Purification of proteins is in Additional file 1
- binding result (GroEL): binds
